In patent publication CN114591430A:

How the values were obtained:
牛血清白蛋白(BSA) (bovine) [1] = biological target: 牛血清白蛋白(BSA) (bovine) (UniProt P02769); assay: ELISA, BSA coated at 1 ug/ml, biotin-labelled antibody at dilution 8K, HRP-avidin
牛血清白蛋白(BSA) (bovine) [2] = biological target: 牛血清白蛋白(BSA) (bovine) (UniProt P02769); assay: ELISA, BSA coated at 1 ug/ml, biotin-labelled antibody at dilution 4K, HRP-avidin
牛血清白蛋白(BSA) (bovine) [3] = biological target: 牛血清白蛋白(BSA) (bovine) (UniProt P02769); assay: indirect ELISA, BSA coated at 1 ug/ml, purified antibody at dilution 512K, HRP goat anti-mouse IgG
牛血清白蛋白(BSA) (bovine) [4] = biological target: 牛血清白蛋白(BSA) (bovine) (UniProt P02769); assay: ELISA, BSA coated at 1 ug/ml, biotin-labelled antibody at dilution 512K, HRP-avidin
牛血清白蛋白(BSA) (bovine) [5] = biological target: 牛血清白蛋白(BSA) (bovine) (UniProt P02769); assay: indirect ELISA, BSA coated at 1 ug/ml, purified antibody at dilution 256K, HRP goat anti-mouse IgG
牛血清白蛋白(BSA) (bovine) [6] = biological target: 牛血清白蛋白(BSA) (bovine) (UniProt P02769); assay: ELISA, BSA coated at 1 ug/ml, biotin-labelled antibody at dilution 256K, HRP-avidin
牛血清白蛋白(BSA) (bovine) [7] = biological target: 牛血清白蛋白(BSA) (bovine) (UniProt P02769); assay: indirect ELISA, BSA coated at 1 ug/ml, purified antibody at dilution 64K, HRP goat anti-mouse IgG
牛血清白蛋白(BSA) (bovine) [8] = biological target: 牛血清白蛋白(BSA) (bovine) (UniProt P02769); assay: indirect ELISA, BSA coated at 1 ug/ml, purified antibody at dilution 4K, HRP goat anti-mouse IgG
牛血清白蛋白(BSA) (bovine) [9] = biological target: 牛血清白蛋白(BSA) (bovine) (UniProt P02769); assay: ELISA, BSA coated at 1 ug/ml, biotin-labelled antibody at dilution 16K, HRP-avidin
牛血清白蛋白(BSA) (bovine) [10] = biological target: 牛血清白蛋白(BSA) (bovine) (UniProt P02769); assay: ELISA, BSA coated at 1 ug/ml, biotin-labelled antibody at dilution 128K, HRP-avidin
牛血清白蛋白(BSA) (bovine) [11] = biological target: 牛血清白蛋白(BSA) (bovine) (UniProt P02769); assay: ELISA, BSA coated at 1 ug/ml, biotin-labelled antibody at dilution 2K, HRP-avidin
牛血清白蛋白(BSA) (bovine) [12] = biological target: 牛血清白蛋白(BSA) (bovine) (UniProt P02769); assay: indirect ELISA, BSA coated at 1 ug/ml, purified antibody at dilution 128K, HRP goat anti-mouse IgG
牛血清白蛋白(BSA) (bovine) [13] = biological target: 牛血清白蛋白(BSA) (bovine) (UniProt P02769); assay: indirect ELISA, BSA coated at 1 ug/ml, purified antibody at dilution 8K, HRP goat anti-mouse IgG
牛血清白蛋白(BSA) (bovine) [14] = biological target: 牛血清白蛋白(BSA) (bovine) (UniProt P02769); assay: indirect ELISA, BSA coated at 1 ug/ml, purified antibody at dilution 32K, HRP goat anti-mouse IgG
牛血清白蛋白(BSA) (bovine) [15] = biological target: 牛血清白蛋白(BSA) (bovine) (UniProt P02769); assay: ELISA, BSA coated at 1 ug/ml, biotin-labelled antibody at dilution 1K, HRP-avidin
牛血清白蛋白(BSA) (bovine) [16] = biological target: 牛血清白蛋白(BSA) (bovine) (UniProt P02769); assay: ELISA, BSA coated at 1 ug/ml, biotin-labelled antibody at dilution 1024K, HRP-avidin
牛血清白蛋白(BSA) (bovine) [17] = biological target: 牛血清白蛋白(BSA) (bovine) (UniProt P02769); assay: indirect ELISA, BSA coated at 1 ug/ml, purified antibody at dilution 2K, HRP goat anti-mouse IgG
牛血清白蛋白(BSA) (bovine) [18] = biological target: 牛血清白蛋白(BSA) (bovine) (UniProt P02769); assay: indirect ELISA, BSA coated at 1 ug/ml, purified antibody at dilution 1024K, HRP goat anti-mouse IgG
牛血清白蛋白(BSA) (bovine) [19] = biological target: 牛血清白蛋白(BSA) (bovine) (UniProt P02769); assay: ELISA, BSA coated at 1 ug/ml, biotin-labelled antibody at dilution 64K, HRP-avidin
牛血清白蛋白(BSA) (bovine) [20] = biological target: 牛血清白蛋白(BSA) (bovine) (UniProt P02769); assay: indirect ELISA, BSA coated at 1 ug/ml, purified antibody at dilution 16K, HRP goat anti-mouse IgG
牛血清白蛋白(BSA) (bovine) [21] = biological target: 牛血清白蛋白(BSA) (bovine) (UniProt P02769); assay: ELISA, BSA coated at 1 ug/ml, biotin-labelled antibody at dilution 32K, HRP-avidin
牛血清白蛋白(BSA) (bovine) [22] = biological target: 牛血清白蛋白(BSA) (bovine) (UniProt P02769); assay: indirect ELISA, BSA coated at 1 ug/ml, purified antibody at dilution 1K, HRP goat anti-mouse IgG

UniProt P02769, sequence (P02769 25-607): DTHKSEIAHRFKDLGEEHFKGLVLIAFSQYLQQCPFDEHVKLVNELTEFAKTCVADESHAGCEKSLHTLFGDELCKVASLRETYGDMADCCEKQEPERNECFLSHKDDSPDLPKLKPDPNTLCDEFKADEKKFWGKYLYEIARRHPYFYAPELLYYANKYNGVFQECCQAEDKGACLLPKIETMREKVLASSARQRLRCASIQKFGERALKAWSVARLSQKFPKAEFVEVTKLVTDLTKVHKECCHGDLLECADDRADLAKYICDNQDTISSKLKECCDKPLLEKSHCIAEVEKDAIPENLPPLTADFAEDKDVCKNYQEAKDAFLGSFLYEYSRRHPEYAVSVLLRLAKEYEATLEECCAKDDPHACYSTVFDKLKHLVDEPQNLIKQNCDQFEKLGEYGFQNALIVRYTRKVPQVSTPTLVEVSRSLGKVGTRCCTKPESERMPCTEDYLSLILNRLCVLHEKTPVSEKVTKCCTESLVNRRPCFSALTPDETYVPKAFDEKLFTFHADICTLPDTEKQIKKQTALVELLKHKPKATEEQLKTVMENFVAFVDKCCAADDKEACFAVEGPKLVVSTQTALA

B1: BSA抗体B6 (antibody, V domains shown)
VH: VQLQESGAELVKPGASVKLSCKASGYTFTGQYVSWVKQRPGQGLEWIGEDNKSSRQGTEYSKATLTVDKSSSTAYMQLSSLTSEDSAVYYCTRDEVRSETYWGQGTTVTVSS
VL: DIVLTQSPATLSVTPGDSVSLSCRTEDKSLSYHWFQQKSHESPRLLIKDAYQKISGIPSRFNGCGSGTDFTLNINSVETEDFGMFFCQTSGWTHFGSGTKLEIKR
牛血清白蛋白(BSA) (bovine) [1]
  OD450: 1.66
牛血清白蛋白(BSA) (bovine) [2]
  OD450: 1.9
牛血清白蛋白(BSA) (bovine) [3]
  OD450: 0.184
牛血清白蛋白(BSA) (bovine) [4]
  OD450: 0.332
牛血清白蛋白(BSA) (bovine) [5]
  OD450: 0.269
牛血清白蛋白(BSA) (bovine) [6]
  OD450: 0.431
牛血清白蛋白(BSA) (bovine) [7]
  OD450: 0.454
牛血清白蛋白(BSA) (bovine) [8]
  OD450: 0.981
牛血清白蛋白(BSA) (bovine) [9]
  OD450: 1.42
牛血清白蛋白(BSA) (bovine) [10]
  OD450: 0.677
牛血清白蛋白(BSA) (bovine) [11]
  OD450: 2.11
牛血清白蛋白(BSA) (bovine) [12]
  OD450: 0.371
牛血清白蛋白(BSA) (bovine) [13]
  OD450: 0.846
牛血清白蛋白(BSA) (bovine) [14]
  OD450: 0.538
牛血清白蛋白(BSA) (bovine) [15]
  OD450: 2.39
牛血清白蛋白(BSA) (bovine) [16]
  OD450: 0.15
牛血清白蛋白(BSA) (bovine) [17]
  OD450: 1.64
牛血清白蛋白(BSA) (bovine) [18]
  OD450: 0.161
牛血清白蛋白(BSA) (bovine) [19]
  OD450: 0.885
牛血清白蛋白(BSA) (bovine) [20]
  OD450: 0.648
牛血清白蛋白(BSA) (bovine) [21]
  OD450: 1.13
牛血清白蛋白(BSA) (bovine) [22]
  OD450: 2.21
